Laboratory results from patent US20260327578A1, “TRANSGLUTAMINASES AND USES THEREOF” (CURIE CO. INC., priority 2023, published 2026).

Columns and labels:
[1] = tested on: N,N-dimethylcasein; assay: Productivity: total product formed after 24 hours (protein functionalization assay); assay type: biochemical; details: improvement relative to wild-type Tgase (SEQ ID NO: 2); total product after 24 h
Procedure: (§1) Enzymatic “productivity” is a measure of product formation or substrate disappearance over time, at a prescribed temperature under specified reaction conditions. It is the measure both the durability and reaction yield of the enzyme variant. In this instance, productivity is defined as total product formed over 24-hours at a constant substrate concentration when the enzyme is the rate limiting factor. The time is defined as 24 hours, which represents approaching or surpassing burnout, denaturation, or self-reaction of the enzyme variant. In other words, variants with higher productivity deliver a higher product yield in 24-hours than variants with lower productivity produce in the same period of time. “Rate” refers to the initial rate for an enzymatic reaction, at a prescribed temperature under specified reaction conditions. The enzyme produces product at an initial rate that is approximately linear for a short period after the start of the reaction. When concentrations of enzyme and substrate are the same across the sample set, initial rates between enzyme variants can be compared. In this instance, the linear range for production of product occurs in one hour. Enzyme variants with faster initial rates deliver a higher product yield in one hour than variants with slower initial rates produce at the same time-period. In some cases, improvements to initial rates also deliver a more productive variant. In some cases, improvements to initial rates result in faster decay of the enzyme variant reducing overall enzymatic productivity. Productivity and rate may be assessed as described in Example 2.
(§2) Table 6 depicts variants of Streptomyces mobaraensis Tgase and improvement to productivity and/or rate relative to wild-type Tgase (SEQ ID NO. 2) as determined in Example 3. Numbering of amino acid positions is in reference to the mature S. mobaraensis Tgase sequence depicted in SEQ ID NO. 2. A “−” indicates a reduction in activity. A “+” indicates an improvement between 1.2 and 2-fold. A “++” indicates an improvement between 2 and 5-fold. A “+++” indicates an improvement greater than 5-fold.
To evaluate productivity, total product formed was measured after 24-hours of incubation, using the assay described in Example 4B. The time is defined as 24 hours which represents approaching or surpassing burnout, denaturation, or self-reaction of the enzyme variant.
(§3) Protein functionalization by Tgase variants was determined by the fluorogenic labeling of casein using monodansylcadaverine (e.g., a commercially available kit such as the Transglutaminase Fluorogenic Activity Assay Kit, T036, Zedira, Germany). Tgase activity was monitored by measuring fluorescence (excitation wavelength 332 nm; emission wavelength 500 nm) using a BioTek Synergy H1 microplate reader. Transglutaminase-catalyzed covalent coupling (crosslinking) of monodansylcadaverine with N,N-dimethylcasein produces a product that causes a shift in intensity and wavelength of fluorescence of the dansyl group now linked to the casein. The relative transglutaminase activity is shown by increase of fluorescence intensity over time. Enzyme variant loading was optimized based on expression levels, ensuring enzyme was the rate limiting factor. Briefly, cell-free reactions (set up as described in Example 2A) were first diluted 10-fold using phosphate buffer, pH 7.4, and a 5 microliter aliquot was analyzed.

[2] = tested on: N,N-dimethylcasein; assay: Rate of product formation over 60 minutes (protein functionalization assay); assay type: biochemical; parameters: key: −: a reduction in activity; +: an improvement between 1.2 and 2-fold; ++: an improvement between 2 and 5-fold; +++: an improvement greater than 5-fold; details: improvement relative to wild-type Tgase (SEQ ID NO: 2); initial rate over 60 min
Procedure: as §1, §2
Rate was assessed by measuring the rate of product formation over 60 minutes of incubation using a kinetic method to take scans every 60 seconds to determine product formation, using reaction conditions as described in Example 4B. The enzyme produces product at an initial rate that is approximately linear for the first one hour of the reaction. The concentrations of enzyme and substrate are the same across the sample set for each enzyme variant. Enzyme variants with faster initial rates deliver a higher product yield in one hour than variants with slower initial rates produce at the same time-period.
as §3

B1: A5: Tgase variant S2P Q50S Q74A K91H Q124L K151R K152R N282D S284A H289I S299E relative to SEQ ID NO: 2 (protein, UniProt P81453 77-407, looked up, variant S2P Q50S Q74A K91H Q124L K151R K152R N282D S284A H289I S299E)
Protein-glutamine …: DPDDRVTPPAEPLDRMPDPYRPSYGRAETVVNNYIRKWQQVYSHRDGRKSQMTEEQREWLSYGCVGVTWVNSGAYPTNRLAFASFDEDRFHNELKNGRPRSGETRAEFEGRVAKESFDEEKGFLRAREVASVMNRALENAHDESAYLDNLRRELANGNDALRNEDARSPFYSALRNTPSFKERNGGNHDPSRMKAVIYSKHFWSGQDRSSSADKRKYGDPDAFRPAPGTGLVDMSRDRNIPRSPTSPGEGFVNFDYGWFGAQTEADADKTVWTHGNHYHAPDGALGAMIVYESKFRNWEEGYSDFDRGAYVITFIPKSWNTAPDKVKQGWP
[1]
  Productivity: + (an improvement between 1.2 and 2-fold)
[2]
  Rate: −

B2: A10: Tgase variant S2P A10T Q50S Q74A K91H Q124L S131I K151R K152R N282M G283A S299V relative to SEQ ID NO: 2 (protein, UniProt P81453 77-407, looked up, variant S2P A10T Q50S Q74A K91H Q124L S131I K151R K152R N282M G283A S299V)
Protein-glutamine …: DPDDRVTPPTEPLDRMPDPYRPSYGRAETVVNNYIRKWQQVYSHRDGRKSQMTEEQREWLSYGCVGVTWVNSGAYPTNRLAFASFDEDRFHNELKNGRPRSGETRAEFEGRVAKESFDEEKGFLRAREVAIVMNRALENAHDESAYLDNLRRELANGNDALRNEDARSPFYSALRNTPSFKERNGGNHDPSRMKAVIYSKHFWSGQDRSSSADKRKYGDPDAFRPAPGTGLVDMSRDRNIPRSPTSPGEGFVNFDYGWFGAQTEADADKTVWTHGNHYHAPMASLGAMHVYESKFRNWVEGYSDFDRGAYVITFIPKSWNTAPDKVKQGWP
[1]
  Productivity: + (an improvement between 1.2 and 2-fold)
[2]
  Rate: + (an improvement between 1.2 and 2-fold)

B3: A7: Tgase variant S2P Q50S Q74A K91H Q124L K151R K152R N282M G283A S299V relative to SEQ ID NO: 2 (protein, UniProt P81453 77-407, looked up, variant S2P Q50S Q74A K91H Q124L K151R K152R N282M G283A S299V)
Protein-glutamine …: DPDDRVTPPAEPLDRMPDPYRPSYGRAETVVNNYIRKWQQVYSHRDGRKSQMTEEQREWLSYGCVGVTWVNSGAYPTNRLAFASFDEDRFHNELKNGRPRSGETRAEFEGRVAKESFDEEKGFLRAREVASVMNRALENAHDESAYLDNLRRELANGNDALRNEDARSPFYSALRNTPSFKERNGGNHDPSRMKAVIYSKHFWSGQDRSSSADKRKYGDPDAFRPAPGTGLVDMSRDRNIPRSPTSPGEGFVNFDYGWFGAQTEADADKTVWTHGNHYHAPMASLGAMHVYESKFRNWVEGYSDFDRGAYVITFIPKSWNTAPDKVKQGWP
[1]
  Productivity: + (an improvement between 1.2 and 2-fold)
[2]
  Rate: + (an improvement between 1.2 and 2-fold)

B4: A8: Tgase variant S2P D14W Q50S Q74A K91H Q124L K151R K152R N282M G283A S299A relative to SEQ ID NO: 2 (protein, UniProt P81453 77-407, looked up, variant S2P D14W Q50S Q74A K91H Q124L K151R K152R N282M G283A S299A)
Protein-glutamine …: DPDDRVTPPAEPLWRMPDPYRPSYGRAETVVNNYIRKWQQVYSHRDGRKSQMTEEQREWLSYGCVGVTWVNSGAYPTNRLAFASFDEDRFHNELKNGRPRSGETRAEFEGRVAKESFDEEKGFLRAREVASVMNRALENAHDESAYLDNLRRELANGNDALRNEDARSPFYSALRNTPSFKERNGGNHDPSRMKAVIYSKHFWSGQDRSSSADKRKYGDPDAFRPAPGTGLVDMSRDRNIPRSPTSPGEGFVNFDYGWFGAQTEADADKTVWTHGNHYHAPMASLGAMHVYESKFRNWAEGYSDFDRGAYVITFIPKSWNTAPDKVKQGWP
[1]
  Productivity: + (an improvement between 1.2 and 2-fold)
[2]
  Rate: ++ (an improvement between 2 and 5-fold)

B5: A12: Tgase variant S2P R15T Q50S Q74A K91H Q124L K151R K152R N282M G283A H289I relative to SEQ ID NO: 2 (protein, UniProt P81453 77-407, looked up, variant S2P R15T Q50S Q74A K91H Q124L K151R K152R N282M G283A H289I)
Protein-glutamine …: DPDDRVTPPAEPLDTMPDPYRPSYGRAETVVNNYIRKWQQVYSHRDGRKSQMTEEQREWLSYGCVGVTWVNSGAYPTNRLAFASFDEDRFHNELKNGRPRSGETRAEFEGRVAKESFDEEKGFLRAREVASVMNRALENAHDESAYLDNLRRELANGNDALRNEDARSPFYSALRNTPSFKERNGGNHDPSRMKAVIYSKHFWSGQDRSSSADKRKYGDPDAFRPAPGTGLVDMSRDRNIPRSPTSPGEGFVNFDYGWFGAQTEADADKTVWTHGNHYHAPMASLGAMIVYESKFRNWSEGYSDFDRGAYVITFIPKSWNTAPDKVKQGWP
[1]
  Productivity: + (an improvement between 1.2 and 2-fold)
[2]
  Rate: + (an improvement between 1.2 and 2-fold)

B6: A6: Tgase variant S2P D14W Q50S Q74A K91H Q124L K151R K152R A166W N282M G283A S299V relative to SEQ ID NO: 2 (protein, UniProt P81453 77-407, looked up, variant S2P D14W Q50S Q74A K91H Q124L K151R K152R A166W N282M G283A S299V)
Protein-glutamine …: DPDDRVTPPAEPLWRMPDPYRPSYGRAETVVNNYIRKWQQVYSHRDGRKSQMTEEQREWLSYGCVGVTWVNSGAYPTNRLAFASFDEDRFHNELKNGRPRSGETRAEFEGRVAKESFDEEKGFLRAREVASVMNRALENAHDESAYLDNLRRELANGNDALRNEDWRSPFYSALRNTPSFKERNGGNHDPSRMKAVIYSKHFWSGQDRSSSADKRKYGDPDAFRPAPGTGLVDMSRDRNIPRSPTSPGEGFVNFDYGWFGAQTEADADKTVWTHGNHYHAPMASLGAMHVYESKFRNWVEGYSDFDRGAYVITFIPKSWNTAPDKVKQGWP
[1]
  Productivity: ++ (an improvement between 2 and 5-fold)
[2]
  Rate: +++ (an improvement greater than 5-fold)

B7: A9: Tgase variant S2P Q50S Q74A K91H K95E Q124L K151R K152R N282M G283A S299V relative to SEQ ID NO: 2 (protein, UniProt P81453 77-407, looked up, variant S2P Q50S Q74A K91H K95E Q124L K151R K152R N282M G283A S299V)
Protein-glutamine …: DPDDRVTPPAEPLDRMPDPYRPSYGRAETVVNNYIRKWQQVYSHRDGRKSQMTEEQREWLSYGCVGVTWVNSGAYPTNRLAFASFDEDRFHNELENGRPRSGETRAEFEGRVAKESFDEEKGFLRAREVASVMNRALENAHDESAYLDNLRRELANGNDALRNEDARSPFYSALRNTPSFKERNGGNHDPSRMKAVIYSKHFWSGQDRSSSADKRKYGDPDAFRPAPGTGLVDMSRDRNIPRSPTSPGEGFVNFDYGWFGAQTEADADKTVWTHGNHYHAPMASLGAMHVYESKFRNWVEGYSDFDRGAYVITFIPKSWNTAPDKVKQGWP
[1]
  Productivity: + (an improvement between 1.2 and 2-fold)
[2]
  Rate: + (an improvement between 1.2 and 2-fold)

B8: A11: Tgase variant S2P D14W Q50S Q74A K91H Q124L S131I K151R K152R N282M G283A S299V relative to SEQ ID NO: 2 (protein, UniProt P81453 77-407, looked up, variant S2P D14W Q50S Q74A K91H Q124L S131I K151R K152R N282M G283A S299V)
Protein-glutamine …: DPDDRVTPPAEPLWRMPDPYRPSYGRAETVVNNYIRKWQQVYSHRDGRKSQMTEEQREWLSYGCVGVTWVNSGAYPTNRLAFASFDEDRFHNELKNGRPRSGETRAEFEGRVAKESFDEEKGFLRAREVAIVMNRALENAHDESAYLDNLRRELANGNDALRNEDARSPFYSALRNTPSFKERNGGNHDPSRMKAVIYSKHFWSGQDRSSSADKRKYGDPDAFRPAPGTGLVDMSRDRNIPRSPTSPGEGFVNFDYGWFGAQTEADADKTVWTHGNHYHAPMASLGAMHVYESKFRNWVEGYSDFDRGAYVITFIPKSWNTAPDKVKQGWP
[1]
  Productivity: + (an improvement between 1.2 and 2-fold)
[2]
  Rate: + (an improvement between 1.2 and 2-fold)
